Laboratory results taken from paper PMC11098746 (2024).

B1: ADP70 (protein)
chain: FENAIKKTKNQENNLALLPIKSTEEEKDDIKNGKDIKKEIDNDKENIKTNNAKDHSTYIKSYLNTNVNDGLKYLFIPSHNSFIKKYSVFNQINDGMLLNEKNDVKNNEDYKNVDYKNVNFLQYHFKELSNYNIANSIDILQEKEGHLDFVIIPHYTFLDYYKHLSYNSIYHKSSTYGKCIAVDAFIKKINEAYDKVKSKCNDIKNDLIATIKKLEHPYDINNKNDDSYRYDISEEIDDKSEETDDETEEVEDSIQDTDSNHAPSNKKKNDLMNRAFKKMMDEYNTKKKKLIKCIKNHENDFNKICMDMKNYGTNLFEQLSCYNNNFCNTNGIRYHYDEYIHKLILSVKSKNLNKDLSDMTNILQQSELLLTNLNKKMGSYIYIDTIKFIHKEMKHIFNRIEYHTKIINDKTKIIQDKIKLNIWRTFQKDELLKRILDMSNEYSLFITSDHLRQMLYNTFYSKEKHLNNIFHHLIYVLQMKFNDVPIKMEYFQTYKKNKPLTQ
modifications: bait human Fc-tagged dimer; N-glycosylation sequons mutated in Plasmodium baits
B2: ADP222 (protein)
chain: NVVAPKSAEAVHTLTAKLDTENKAHQKYIDIINGVFSENMENFVFSITTSNGFTCSINKLDVIFDNKVTGMQKVFSDENVQYIKEASLEFKNNLLEYMKGVMPSENDFSNVRKEFQKVCVKYFSELRRKFFQIYRDPNNKNQNEDNVDNHMNIEEISQEFFSGFNPFGTMKIRKEQNPDLSQKDSLILNENNNDALTSADQKNNNMVPMENRAFSYSQQSSHVVSFDGHDEHVEQQEQHSGDNTQEDKDQLMDLPFNKDKVFSTFLKNVALLIEGNCAEAQQQAQEQTQEQTEEQEEEQNEKEIESDKQVQKDGEQKENDVQKKQKANAFTIQFSSSLSRKHISTTCNAASGNVFLRKGNKPFEHFNSPNFENMMKGVFGIIQNPFENGQPTFPFFKNINSISGIGNVDIPKNFMNDFLNNGNDQNTPISS
modifications: bait human Fc-tagged dimer; N-glycosylation sequons mutated in Plasmodium baits

Tests used:
Experiment in all cases: AVEXIS screen signal:noise (double-corrected)
ADP101 = target: T1, ADP101
T1 chain: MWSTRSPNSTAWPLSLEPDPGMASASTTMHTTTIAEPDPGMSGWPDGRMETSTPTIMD

ADP285 = target: T2, ADP285
T2 chain: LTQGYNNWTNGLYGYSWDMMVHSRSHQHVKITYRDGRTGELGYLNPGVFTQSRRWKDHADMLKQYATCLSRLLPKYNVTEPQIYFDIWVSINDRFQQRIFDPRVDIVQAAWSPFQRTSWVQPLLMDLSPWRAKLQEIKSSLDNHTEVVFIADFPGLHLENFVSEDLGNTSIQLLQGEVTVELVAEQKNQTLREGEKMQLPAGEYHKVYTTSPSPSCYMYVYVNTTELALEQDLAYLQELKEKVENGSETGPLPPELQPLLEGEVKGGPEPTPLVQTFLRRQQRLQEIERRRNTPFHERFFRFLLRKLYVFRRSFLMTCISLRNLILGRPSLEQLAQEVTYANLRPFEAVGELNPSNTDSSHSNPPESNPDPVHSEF

ADP360 = target: T3, ADP360
T3 chain: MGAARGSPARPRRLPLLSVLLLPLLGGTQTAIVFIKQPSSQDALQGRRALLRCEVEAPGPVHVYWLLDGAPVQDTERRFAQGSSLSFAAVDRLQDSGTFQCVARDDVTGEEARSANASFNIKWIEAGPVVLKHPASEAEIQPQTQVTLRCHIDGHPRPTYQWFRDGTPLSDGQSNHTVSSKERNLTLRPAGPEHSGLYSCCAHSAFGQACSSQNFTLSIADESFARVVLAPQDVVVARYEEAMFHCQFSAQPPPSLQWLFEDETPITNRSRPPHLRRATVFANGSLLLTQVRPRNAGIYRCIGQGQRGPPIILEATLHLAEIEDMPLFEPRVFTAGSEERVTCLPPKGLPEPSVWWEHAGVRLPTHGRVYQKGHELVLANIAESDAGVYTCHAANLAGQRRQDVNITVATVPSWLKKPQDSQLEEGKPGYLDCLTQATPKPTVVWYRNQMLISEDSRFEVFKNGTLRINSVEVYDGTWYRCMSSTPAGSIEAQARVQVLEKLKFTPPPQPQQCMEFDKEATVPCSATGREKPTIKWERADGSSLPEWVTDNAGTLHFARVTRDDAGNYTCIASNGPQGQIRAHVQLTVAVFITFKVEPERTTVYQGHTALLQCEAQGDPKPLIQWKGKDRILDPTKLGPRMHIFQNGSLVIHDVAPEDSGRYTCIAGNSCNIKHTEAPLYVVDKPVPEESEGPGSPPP

ADP103 = target: T4, ADP103
T4 chain: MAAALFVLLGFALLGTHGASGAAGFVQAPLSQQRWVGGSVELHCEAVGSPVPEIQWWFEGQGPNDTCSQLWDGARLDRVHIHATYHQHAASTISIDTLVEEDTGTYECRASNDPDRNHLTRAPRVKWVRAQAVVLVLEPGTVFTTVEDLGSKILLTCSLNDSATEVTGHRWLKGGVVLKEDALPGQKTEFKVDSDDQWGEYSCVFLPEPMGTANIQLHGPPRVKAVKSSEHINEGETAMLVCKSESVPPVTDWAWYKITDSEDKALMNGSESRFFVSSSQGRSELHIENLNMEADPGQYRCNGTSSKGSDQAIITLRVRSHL

ADP325 = target: T5, ADP325
T5 chain: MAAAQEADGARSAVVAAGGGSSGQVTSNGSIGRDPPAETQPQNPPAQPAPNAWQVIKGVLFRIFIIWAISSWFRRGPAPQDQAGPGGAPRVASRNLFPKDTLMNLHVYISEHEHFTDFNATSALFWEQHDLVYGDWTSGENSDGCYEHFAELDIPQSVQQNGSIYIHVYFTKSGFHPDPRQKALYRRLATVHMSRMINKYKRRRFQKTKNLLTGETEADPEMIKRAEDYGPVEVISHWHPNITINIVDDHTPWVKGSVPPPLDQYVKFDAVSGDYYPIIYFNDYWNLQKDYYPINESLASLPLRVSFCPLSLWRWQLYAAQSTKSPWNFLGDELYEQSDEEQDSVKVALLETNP

Row | Binder | binding score (ADP101) | binding score (ADP285) | binding score (ADP360) | binding score (ADP103) | binding score (ADP325)
1 | B1 | 6.6 | 7.62 | 6.35 | 4530 | 
2 | B2 |  |  |  |  | 6.14
